The record followed here is article PMC3434177, “Agnathan VIP, PACAP and Their Receptors: Ancestral Origins of Today's Highly Diversified Forms” (PLoS ONE, 2012).

Experiment [1] addresses inshore hagfish (Eptatretus burgeri) VPAC receptor a (inshore hagfish (Eptatretus burgeri)).
Experiment [2] has the same target. This is another data set of the same source.
Experiment [3] concerns the target inshore hagfish (Eptatretus burgeri) VPAC receptor b (inshore hagfish (Eptatretus burgeri)).
The test system of experiment [4] is hfVPACa. The experiment can be described thus: cAMP accumulation (LANCE cAMP assay) in COS-7 cells transiently transfected with hfVPACa. The experiment is classed as cell-based, inshore hagfish (Eptatretus burgeri). Particulars: 100 nM peptide, 30 min, at least 4 experiments in duplicates. The protocol: To investigate the functional properties of the proteins encoded by the agnathan VPAC receptor cDNAs, various vertebrate secretin superfamily peptides at a 100 nM concentration were employed to determine their abilities to stimulate cAMP production in transiently transfected COS-7 cells with hfVPACa or hfVPACb. As jlpVPAC was indicated to be orthologous to hfVPACa by phylogenetic analysis, only the hfVPAC receptors were tested (Figure 4). […] The hfVPACa was further studied using graded concentrations of VIP/PACAP peptides from various vertebrates including sea lamprey (Figure 4C and 4D).
Figure 4 Functional characterization of hfVPACa and hfVPACb. Intracellular cAMP accumulation in response to 100 nM vertebrate superfamily peptides on COS-7 cells transiently transfected with (A) hfVPACa and (B) hfVPACb. Peptide species: slp, sea lamprey; gf, goldfish; h, human; o, ovine; zf, zebrafish; x, Xenopus; ct, catfish and cp, carp. Data represent the mean ± S.E.M. of at least 4 experiments performed in duplicates, p<0.01 is denoted by “*”. […] Data are expressed as the mean ± S.E.M. of at least 6 experiments performed in duplicates. […] Data are expressed as the mean ± S.E.M. of at least 4 experiments. RFU, relative fluorescence units. (G) Shown are representative of confocal fluorescence images of CHO-K1 cells expressing (i) hfVPACa-pEYFP, (ii) hfVPACb-pEYFP and (iii) pEYFP-N1.
African green monkey kidney (COS-7) and Chinese hamster ovary (CHO-K1) cells (ATCC, Manassas, VA) were cultured in 10% FBS/100 U/ml Penicillin/[…] Streptomycin supplemented DMEM and MEM respectively in a 5% (v/v) CO2 humidified chamber at 37°C and passaged twice per week using Trypsin-EDTA (TE) (Invitrogen) on Nunc^TM Surface (Nunc, Denmark) tissue culture flasks. […] For cAMP assays, COS-7 cells were stimulated for 30 mins with either fixed ([…]) or varying (10^−6 to 10^−12 M) concentrations before taking measurements using the LANCE cAMP assay kit (Perkin-Elmer, Waltham, MA) in the Victor x4 multilabel reader (Perkin-Elmer) according to the manufacturer's protocol. […]

Turning to ovine PACAP-27 (peptide), the intracellular cAMP accumulation (LANCE cAMP assay) in COS-7 cells transiently expressing hfVPACa, graded peptide concentrations 10^-6 to 10^-12 M, EC50 in experiment [1] amounted to 0.895 nM.

For sea lamprey PACAP-27 (peptide), the intracellular calcium elevation (Fluo-4 calcium assay) in CHO-K1 cells transiently expressing hfVPACa, graded peptide concentrations 10^-6 to 10^-12 M, EC50 in experiment [2] came to 1.39 nM. The intracellular calcium elevation (Fluo-4 calcium assay) in CHO-K1 cells transiently expressing hfVPACb, graded peptide concentrations 10^-6 to 10^-12 M, EC50 in experiment [3] came to 27.8 nM. Besides, the intracellular cAMP accumulation (LANCE cAMP assay) in COS-7 cells transiently expressing hfVPACa, graded peptide concentrations 10^-6 to 10^-12 M, EC50 in experiment [1] came to 5.92 nM. “glucagon: Glucagon (goldfish), synthetic peptide (HSEGTFSNDYSKYLETRRAQDFVEWLMNS; Glucagon; UniProt P79695 50-78, looked up)”: in experiment [4], the “ability to stimulate cAMP production at a fixed peptide concentration” value is recorded as “weakly or unable to do so”. Still for that read-out and setting: the same measure for GLP-2: “weakly or unable to do so”. Turning to human VIP (peptide), the intracellular cAMP accumulation (LANCE cAMP assay) in COS-7 cells transiently expressing hfVPACa, graded peptide concentrations 10^-6 to 10^-12 M, EC50 in experiment [1] amounted to 1.74 nM. Take GLP-1: in experiment [4], the “ability to stimulate cAMP production at a fixed peptide concentration” value was “weakly or unable to do so”.
